The results in this text go back to publication PMC4931249.

The test concerns the target WT BG505 SOSIP.664 gp140 trimer (HIV-1 clade-A BG505). As to the kind of experiment: negative-stain EM.

For the substance “WT BG505 SOSIP.664 gp140 trimer (complex)”, the stoichiometry N stood at 3.

By stoichiometry N is commonly meant a count of units in the complex or per binding partner.
